Here are results for 18 molecules from patent US20060024289.

Residue numbers refer to the chain shown, from its start. Names and notes keep the numbering of the source. Where only a bound is given, the exact number is not on record here.

The subject of data set [1] is extracellular domain of VEGF-R2 (Flk1) fused to the Fc domain of mouse IgG.
A further data set deals with T1, Ac-RRVR-AMC.
T1 sequence: RRVR

Data set [2] addresses T2, Ac-IEPD-AMC.
T2 chain: XIEPDX
The data set is described as follows: Michaelis-Menten kinetics of fluorogenic tetrapeptide hydrolysis.

For data set [3], the target named is T3, Ac-IEFD-AMC.
T3 chain: XIEFDX
The description is as above.

The target in data set [4] is T2, Ac-IEPD-AMC.
The target of data set [5] is T3, Ac-IEFD-AMC.
The target of data set [6] is T4, Ac-IETD-AMC.
T4 chain: XIETDX
The experiment in a line: Michaelis-Menten kinetics of fluorogenic tetrapeptide hydrolysis.

For data set [7], the target named is T4, Ac-IETD-AMC.
Another data set has as its target T5, Ac-LEPD-AMC.
T5 chain: XLEPDX

Data set [8] addresses T6, Ac-IKPD-AMC.
T6 chain: XIKPDX
The data set is described as follows: Michaelis-Menten kinetics of fluorogenic tetrapeptide hydrolysis.

The target in data set [9] is T6, Ac-IKPD-AMC.
For another data set, the target named is T7, Ac-IAPD-ACC.
T7 chain: XIAPDX

extracellular domain of VEGF-R2 (Flk1) fused to the Fc domain of mouse IgG, sequence (chain, as listed by the source): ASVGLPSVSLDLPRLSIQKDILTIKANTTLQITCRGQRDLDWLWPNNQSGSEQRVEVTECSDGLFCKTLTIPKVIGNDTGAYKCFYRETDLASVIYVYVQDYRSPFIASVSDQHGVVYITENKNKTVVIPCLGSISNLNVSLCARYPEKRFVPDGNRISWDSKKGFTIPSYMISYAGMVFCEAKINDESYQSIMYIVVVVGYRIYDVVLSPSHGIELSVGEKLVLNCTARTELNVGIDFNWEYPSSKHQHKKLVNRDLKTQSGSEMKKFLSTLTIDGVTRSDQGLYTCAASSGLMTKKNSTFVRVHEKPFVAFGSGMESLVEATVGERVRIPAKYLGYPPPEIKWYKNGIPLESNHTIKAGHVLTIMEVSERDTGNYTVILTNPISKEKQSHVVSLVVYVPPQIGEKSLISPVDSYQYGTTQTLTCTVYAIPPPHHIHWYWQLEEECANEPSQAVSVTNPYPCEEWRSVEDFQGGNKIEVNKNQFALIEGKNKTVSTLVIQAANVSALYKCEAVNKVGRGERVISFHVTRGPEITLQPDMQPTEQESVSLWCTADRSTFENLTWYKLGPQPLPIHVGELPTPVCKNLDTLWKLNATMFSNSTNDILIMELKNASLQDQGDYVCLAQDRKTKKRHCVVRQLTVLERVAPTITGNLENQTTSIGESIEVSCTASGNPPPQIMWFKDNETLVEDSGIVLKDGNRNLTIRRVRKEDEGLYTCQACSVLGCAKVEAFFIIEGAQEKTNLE

Turning to “granzyme B mutein CB10 (I99A/N218A/R192M)”, in data set [1], the “cleavage of purified VEGFR2-Fc (SDS-PAGE)” value (from here on “cleavage … (SDS-PAGE)”) is “The purified VEGFR2-Fc is efficiently cleaved by wild-type and mutant granzyme B ... None of the protease variants (wild-type or mutant) cleave the Fc domain”; the “in vitro cleavage of soluble Flk1-Fc (gel, FIG. 10)” value (“in vitro cleavage” for short) was “Wild-type granzyme B and the listed muteins cleave the VEGFR-Fc receptor”.
On to MT-SP1 mutein CB159 (F99I/L172D/Q175D), for which, in the data set on Ac-RRVR-AMC, the “kcat/Km (specificity constant)” value is “cut the Ac-RRVR-AMC substrate at 2.2 and 2.3×10^5 M^-1s^-1, respectively”; the “preference of RRVR over RQAR substrate (ratio of kcat/Km)” value is recorded as “prefer RRVR to RQAR by greater than 8 fold”.
Regarding MT-SP1 mutant D217F, the “cleavage … (SDS-PAGE)” value in data set [1] was “Several mutants (N175D and D217F) cleave the receptor with higher efficiency than wild-type”.
As to “granzyme B mutein CB07 (I99A/N218A/Y174D)”, in data set [1], the “cleavage … (SDS-PAGE)” value is “The purified VEGFR2-Fc is efficiently cleaved by wild-type and mutant granzyme B ... None of the protease variants (wild-type or mutant) cleave the Fc domain”; the “in vitro cleavage” value was “Wild-type granzyme B and the listed muteins cleave the VEGFR-Fc receptor”.
Consider MT-SP1 mutein CB155 (Y146D/K224F), for which the “kcat/Km (specificity constant)” value in the data set on Ac-RRVR-AMC is “cut the Ac-RRVR-AMC substrate at 2.2 and 2.3×10^5 M^-1s^-1, respectively”.
With “granzyme B mutein CB06 (I99A/N218A/Y174E)”, in [1], the “cleavage … (SDS-PAGE)” value is “The purified VEGFR2-Fc is efficiently cleaved by wild-type and mutant granzyme B ... None of the protease variants (wild-type or mutant) cleave the Fc domain”; the “in vitro cleavage” value was “Wild-type granzyme B and the listed muteins cleave the VEGFR-Fc receptor”.
For “granzyme B mutein CB05 (I99A/N218A/K172D)”, in data set [1], the “cleavage … (SDS-PAGE)” value is “The purified VEGFR2-Fc is efficiently cleaved by wild-type and mutant granzyme B ... None of the protease variants (wild-type or mutant) cleave the Fc domain”; the “in vitro cleavage” value was “Wild-type granzyme B and the listed muteins cleave the VEGFR-Fc receptor”.
For the molecule MT-SP1 mutant N175D, the “cleavage … (SDS-PAGE)” value in data set [1] was “Several mutants (N175D and D217F) cleave the receptor with higher efficiency than wild-type”.
In the case of MT-SP1 mutein CB18 (L172D), the “cleavage … (SDS-PAGE)” value in data set [1] is reported as “The mutant L172D cleaves full-length VEGFR2 but at a reduced rate compared to the wild-type”.
In the case of “granzyme B mutein CB02 (I99A/N218A/L171E)”, in data set [1], the “cleavage … (SDS-PAGE)” value was “The purified VEGFR2-Fc is efficiently cleaved by wild-type and mutant granzyme B ... None of the protease variants (wild-type or mutant) cleave the Fc domain”; the “in vitro cleavage” value was “Wild-type granzyme B and the listed muteins cleave the VEGFR-Fc receptor”.

B1: rat granzyme B I99A (protein)
chain: IIGGHEAKPHSRPYMAYLQIMDEYSGSKKCGGFLIREDFVLTAAHCSGSKINVTLGAHNIKEQEKMQQIIPVVKIIPHPAYNSKTASNDIMLLKLKSKAKRSSAVKPLNLPRRNVKVKPGDVCYVAGWGKLGPMGKYSDTLQEVELTVQEDQKCESYLKNYFDKANEICAGDPKIKRASFRGDSGGPLVCKKVAAGIVSYGQNDGSTPRAFTKVSTFLSWIKKTMKKS
Turning to B1, the Km with Ac-IEPD-AMC [2] turned out to be 2500 µM; with Ac-IEFD-AMC [3], 880 µM. Moreover, the kcat stood at 0.14 s⁻¹ with Ac-IEPD-AMC [4] and 0.24 s⁻¹ with Ac-IEFD-AMC [5]. Further, the kcat/Km came to 57 M⁻¹ s⁻¹ with Ac-IEPD-AMC [4] and 270 M⁻¹ s⁻¹ with Ac-IEFD-AMC [5].

B2: rat granzyme B I99R (protein)
chain: B1 chain with A86R
As to B2, the Michaelis-Menten constant (Km) is 2000 µM with Ac-IETD-AMC [6]; 1800 µM with Ac-IEPD-AMC [2]; 930 µM and The Km of the P2-Phe substrate (980 µM) with Ac-IEFD-AMC [3]. Also, the Kcat turned out to be 0.3 s⁻¹ in the data set with Ac-IETD-AMC [7], 0.59 s⁻¹ in the data set with Ac-IEPD-AMC [4] and 0.47 s⁻¹ with Ac-IEFD-AMC [5]. In addition, the Kcat/Km with Ac-IETD-AMC [7] was 150 M⁻¹ s⁻¹; with Ac-IEPD-AMC [4] it was 330 M⁻¹ s⁻¹; with Ac-IEFD-AMC [5] it was 505 M⁻¹ s⁻¹; in the data set with Ac-LEPD-AMC, 12 M⁻¹ s⁻¹. The kcat entry with Ac-IEPD-AMC [4] was “kcat is 0.47 s^-1 and 0.55 s^-1, respectively”.

B3: rat granzyme B N218A (protein)
chain: B1 chain with A86I, N203A
For the molecule B3, the Km is 1800 µM with Ac-IKPD-AMC [8] and 700 µM with Ac-IEPD-AMC [2]. The turnover number (kcat) with Ac-IKPD-AMC [9] stood at 0.38 s⁻¹; with Ac-IEPD-AMC [4], 1.6 s⁻¹. Also, the kcat/Km in the data set with Ac-IKPD-AMC [9] was determined as 220 M⁻¹ s⁻¹; in the data set with Ac-IEPD-AMC [4], 2200 M⁻¹ s⁻¹.

B4: rat granzyme B N218A/R192A (protein)
chain: B1 chain with A86I, R181A, N203A
As to B4, the Michaelis-Menten constant (Km) was > 2000 µM in the data set with Ac-IKPD-AMC [8] and 1700 µM in the data set with Ac-IEPD-AMC [2]. The Kcat/Km is 55 M⁻¹ s⁻¹ in the data set with Ac-IKPD-AMC [9], 92 M⁻¹ s⁻¹ with Ac-IEPD-AMC [4] and 29 M⁻¹ s⁻¹ with Ac-IAPD-ACC. For the same molecule, the Kcat with Ac-IEPD-AMC [4] is 0.16 s⁻¹.

B5: rat granzyme B N218A/R192E (protein)
chain: B1 chain with A86I, R181E, N203A
For the molecule B5, the Km in the data set with Ac-IKPD-AMC [8] and with Ac-IEPD-AMC [2] was > 2000 µM throughout. The Kcat/Km stood at 73 M⁻¹ s⁻¹ with Ac-IKPD-AMC [9], 10 M⁻¹ s⁻¹ with Ac-IEPD-AMC [4] and 15 M⁻¹ s⁻¹ with Ac-IAPD-ACC.

B6: rat granzyme B Y174A (protein)
chain: B1 chain with A86I, Y161A
As to B6, the Km with Ac-IEPD-AMC [2] came to 1000 µM. In addition, in the data set with Ac-IEPD-AMC [4], the kcat turned out to be 0.87 s⁻¹ and the kcat/Km is 470 M⁻¹ s⁻¹.

B7: rat granzyme B N218T (protein)
chain: B1 chain with A86I, N203T
B7: the Km with Ac-IKPD-AMC [8] came to 1800 µM; with Ac-IEPD-AMC [2] it was 580 µM. In addition, the figures for the Kcat in the data set with Ac-IKPD-AMC [9] and with Ac-IEPD-AMC [4] were 1.1 s⁻¹ and 3.6 s⁻¹, respectively. Moreover, the Kcat/Km is 600 M⁻¹ s⁻¹ with Ac-IKPD-AMC [9] and 6200 M⁻¹ s⁻¹ with Ac-IEPD-AMC [4].

B8: rat granzyme B I99F (protein)
chain: B1 chain with A86F
As to B8, the results for the Km with Ac-IETD-AMC [6] and in the data set with Ac-IEPD-AMC [2] were 1900 µM and 500 µM, respectively. For the same molecule, the Kcat with Ac-IETD-AMC [7] came out at 0.3 s⁻¹; with Ac-IEPD-AMC [4], 0.56 s⁻¹. Further, the Kcat/Km in the data set with Ac-IETD-AMC [7] was 153 M⁻¹ s⁻¹; with Ac-IEPD-AMC [4], 510 M⁻¹ s⁻¹; with Ac-IEFD-AMC [5], 410 M⁻¹ s⁻¹; with Ac-LEPD-AMC it was 200 M⁻¹ s⁻¹. For the same molecule, the “specificity constant (kcat/Km)” value in the data set with Ac-IEPD-AMC [4] is 1100 M⁻¹ s⁻¹.
